In article PMC6107515, “Factor H binding proteins protect division septa on encapsulated Streptococcus pneumoniae against complement C3b deposition and amplification” (Nature Communications, 2018):

Legend:
[1] = target: T1, human complement Factor H (human, UniProt P08603 19-1231); assay: SPR; Biacore X100; FH coupled to a CM4 chip, recombinant PspCs injected at five increasing concentrations (kinetic titration); PBS-P+ buffer; fitted with a 1:1 binding model; conditions: both partners purified
T1 construct: complement factor H, human, purified; also called FH

[2] = target: T1, human complement Factor H; assay: as above; conditions: both partners purified; remark: listed apart in the source

T1 sequence (P08603 19-1231): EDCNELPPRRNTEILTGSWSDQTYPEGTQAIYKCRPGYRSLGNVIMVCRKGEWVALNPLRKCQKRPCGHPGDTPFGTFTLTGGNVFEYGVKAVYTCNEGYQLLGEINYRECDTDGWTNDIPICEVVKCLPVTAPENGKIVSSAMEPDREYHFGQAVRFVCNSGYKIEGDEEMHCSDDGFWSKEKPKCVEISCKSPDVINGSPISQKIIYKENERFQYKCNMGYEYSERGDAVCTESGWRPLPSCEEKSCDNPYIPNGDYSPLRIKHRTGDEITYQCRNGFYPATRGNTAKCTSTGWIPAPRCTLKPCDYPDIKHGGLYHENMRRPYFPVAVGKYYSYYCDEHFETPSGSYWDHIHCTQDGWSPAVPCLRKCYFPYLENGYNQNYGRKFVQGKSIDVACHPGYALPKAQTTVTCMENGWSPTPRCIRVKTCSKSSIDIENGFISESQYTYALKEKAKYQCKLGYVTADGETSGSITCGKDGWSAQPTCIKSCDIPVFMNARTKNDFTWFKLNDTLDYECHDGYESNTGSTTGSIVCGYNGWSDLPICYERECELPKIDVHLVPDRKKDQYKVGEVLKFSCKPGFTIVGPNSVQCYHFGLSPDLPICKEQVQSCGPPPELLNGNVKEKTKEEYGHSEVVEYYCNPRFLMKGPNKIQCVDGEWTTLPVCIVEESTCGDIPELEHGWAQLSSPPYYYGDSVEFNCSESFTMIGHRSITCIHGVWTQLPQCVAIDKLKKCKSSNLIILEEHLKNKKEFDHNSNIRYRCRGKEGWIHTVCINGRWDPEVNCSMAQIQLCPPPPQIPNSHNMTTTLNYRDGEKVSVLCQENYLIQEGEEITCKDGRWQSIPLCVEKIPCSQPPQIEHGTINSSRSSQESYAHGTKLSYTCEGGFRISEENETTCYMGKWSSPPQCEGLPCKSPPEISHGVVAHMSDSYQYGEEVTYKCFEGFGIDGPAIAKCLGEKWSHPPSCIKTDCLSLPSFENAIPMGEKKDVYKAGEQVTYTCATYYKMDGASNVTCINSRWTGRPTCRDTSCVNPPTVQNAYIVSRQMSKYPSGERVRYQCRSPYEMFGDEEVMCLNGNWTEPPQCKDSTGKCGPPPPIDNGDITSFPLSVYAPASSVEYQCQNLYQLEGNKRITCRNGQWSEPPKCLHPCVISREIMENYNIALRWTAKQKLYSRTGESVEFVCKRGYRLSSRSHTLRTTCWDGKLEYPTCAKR

B1: recombinant PspC2 (BHN418) (domain or fragment)
chain: TEKEGSTQAATSFNRGNGSQAEQRGELDLERDKAMKAVSEYVGKMVRDAYVKSDRKRHKNTVALVNQLGNIKNRYLNEIVHSTSKSQLQELMMKSQSEVDEAVSKFEKDSFSSSSSGSSTKPETPQPENPEHQKPTTPSPDTKPSPQPEGKKPSVPDINQEKEKAKLAVVTYMSKILDDIQKHHLQKEKHRQIVALIKELDELKKQALSEIDNVNTKVEIENTVHKIFADMDAVVTKFKKGLTQDTPKEPGNKKPSAPKPGMQPSPQPEVKPQLEKPKPEVKPQPEKPKPEVKPQPEKPKPEVKPQPEKPKPEVKPQPEKPKPEVKPQPEKPKPEVKPQPEKPKPEVKPQPEKPKPEVKPQPEKPKPEVKPQPEKPKPEVKPQPEKPKPEVKPQPEKPKPEVKPQPEKPKPEVKPQPEKPKPEVKPQPEKPKPEVKPQPEKPKPEVKPQPEKPKPEVKPQPEKPKPEVKPQPEKPKPEVKPQPEKPKPDNSKPQADDKKPSTTNNLSKDKQPSNQASTNEKATNKPKK
notes: PspC2 of Streptococcus pneumoniae BHN418, lacking the LPxTG motif and the first 37 aa (signal peptide); whole precursor given in Supplementary Data 1; cloned NdeI/XhoI in pET28a; source: E. coli Rosetta (DE3), purified (Ni-NTA, thrombin, Ni-NTA, Superdex 75); not shown: 6xHis, N-terminal, cleaved
Kd [1]: 0.013 nM
koff [1]: 5.5e-05 s⁻¹
kon [1]: 4.1e+06 M⁻¹ s⁻¹

B2: recombinant PspC1 (BHN418) (domain or fragment)
chain: EEVGGRNTPTVTSSGQDISKKYADEVESHLKKILSEIQTQLDRKRHTKTVALINELQDIKKTYLYNLNVLKEKSELPSKIKAKLEVAFDQFKKDTLKPGEKVAEAEKKVAEAKKKAEDQKEEDRRNYPTNTYKTLELEIAESDVKVKEAELELVNEEAKPGNEEKIKKAKAKVESEKAEAIRLEEIKTDREEAKRKADAKLKEAVENNAATSEQGEPKRRVKRGVLGEPATPDKKENDAKSSDSSVGEETLPSPSLKPEKKVAEAEKKAKDQKEEDRRNYPTNTYKTLELEIAESDVKVKEAELELVKEEAKESRNEEKVKQAKAKVESKKAEATRLEKIKTDRKKAEEAKRKAAEEDKVKEKPAEQPQPAPAPQPEKPAPKPEKPAPAPKPENPAEQPKAEKPADQQAEEDYARRSEEEYNRLTQQQPPKTEKPAQPSTPKTGWKQENGMWYFYNTDGSMA
Kd [2]: 0.0908 nM
Kd [1]: 0.09 nM
koff [1]: 6.2e-05 s⁻¹
kon [1]: 690000 M⁻¹ s⁻¹
